Source: patent publication US20230331852A1 (OSE IMMUNOTHERAPEUTICS, published 2023)
Changes are numbered by the printed parent chain. Blank lines part the entries; values can stand above or below the binder they belong to.

Assays:
[1] = target: T1, Fc-CLEC1 labelled with Alexa Fluor 488 (human, Alexa Fluor 488 label (sites not given)); test: FACS competition: blocks Fc-CLEC1-A488 (10 nM) binding to CLEC-1 ligand on UV-treated PBMC; read-out % + cells
T1 construct: also called Fc-CLEC1-A488; Alexa488-Fc-Clec-1
T1 chain: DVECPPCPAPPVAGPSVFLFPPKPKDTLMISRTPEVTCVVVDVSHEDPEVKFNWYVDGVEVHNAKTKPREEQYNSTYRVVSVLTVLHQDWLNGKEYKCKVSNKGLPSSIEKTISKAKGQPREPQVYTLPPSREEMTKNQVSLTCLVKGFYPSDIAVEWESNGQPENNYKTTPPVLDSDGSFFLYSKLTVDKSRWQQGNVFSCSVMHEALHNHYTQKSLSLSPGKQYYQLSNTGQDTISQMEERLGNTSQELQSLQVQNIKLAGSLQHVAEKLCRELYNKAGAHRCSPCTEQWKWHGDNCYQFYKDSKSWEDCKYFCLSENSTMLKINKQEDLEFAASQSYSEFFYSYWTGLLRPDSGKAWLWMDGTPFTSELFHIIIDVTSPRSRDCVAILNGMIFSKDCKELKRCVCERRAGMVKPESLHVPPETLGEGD
Description: (§1) Methods. To measure competition on permeabilised Raji (CytoFix/cytoperm kit, BD Biosciences) which expressed CLEC1 ligand, Fc-CLEC1-labelled A488 which bound specifically to permeabilised Raji was used. To measure competition, Fc-CLEC1 labelled A488 at 10 nM or 20 nM was mixed with mouse anti-hCLEC1 at different concentrations for 15 min at RT then added on these cells for 30 min at 4° C. […] To measure competition on PMBC, we used human PBMC pre-treated by UV for 18 h to obtain apoptotic PBMC, which expressed CLEC1 ligand. Fc-CLEC1-labelled A488 bound specifically apoptotic UV-treated PBMC. To measure competition, Fc-CLEC1 labelled A488 at 10 nM was mixed with mouse anti-hCLEC1 at different concentrations for 15 min at RT then added on these cells for 30 min at 4° C.

[2] = target: T2, recombinant human CLEC-1 protein with His Tag (#1704-CL R&D Systems) (human, UniProt Q8NC01 74-280); test: ELISA on immobilised human His-CLEC1 (column hm His Clec); given as ED50
T2 construct: Bought protein; also called His-CLEC1; His Clec-1; not shown: His tag
T2 sequence: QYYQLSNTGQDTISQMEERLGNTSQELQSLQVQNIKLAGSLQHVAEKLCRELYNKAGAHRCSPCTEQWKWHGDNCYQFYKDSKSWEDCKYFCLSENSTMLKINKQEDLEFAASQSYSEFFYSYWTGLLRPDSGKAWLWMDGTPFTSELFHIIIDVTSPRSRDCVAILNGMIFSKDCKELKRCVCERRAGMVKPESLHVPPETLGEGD
Description: Method: The binding activity of the anti-hCLEC1 antibodies was assessed by ELISA (Enzyme-linked immunosorbent assay). […] A second ELISA assays was performed, like above, with immobilization of CLEC1-Fc (OSE Immunotherapeutics) at 2 μg/ml. A third ELISA assays was performed to see the cross-reactivity with mouse CLEC1. Like above, ELISA was made with immobilization of mouse Fc-CLEC1 (OSE Immunotherapeutics) at 2 μg/ml in carbonate buffer instead of His-Clec. Purified antibodies were added at different concentrations to measure binding. […] Control antibody is a commercial anti-CLEC-1A antibody.

[3] = target: T1, Fc-CLEC1 labelled with Alexa Fluor 488; test: FACS competition: blocks Fc-CLEC1-A488 (10 nM) binding to CLEC-1 ligand on UV-treated PBMC; read-out Mean
Description: as §1

[4] = target: T3, human CLEC-1A expressed on the cell membrane (human, UniProt Q8NC01 1-280); test: flow cytometry on U266 cells; printed as ED50, read-out % + cells
T3 construct: Endogenous on human U266 myeloma cells, on monocyte-derived TGFb-DC and macrophages; on CHO cells after transduction with a Clec-1 expressing lentivirus; also called U266 CLEC1; CLEC-1A on U266 cells
T3 sequence: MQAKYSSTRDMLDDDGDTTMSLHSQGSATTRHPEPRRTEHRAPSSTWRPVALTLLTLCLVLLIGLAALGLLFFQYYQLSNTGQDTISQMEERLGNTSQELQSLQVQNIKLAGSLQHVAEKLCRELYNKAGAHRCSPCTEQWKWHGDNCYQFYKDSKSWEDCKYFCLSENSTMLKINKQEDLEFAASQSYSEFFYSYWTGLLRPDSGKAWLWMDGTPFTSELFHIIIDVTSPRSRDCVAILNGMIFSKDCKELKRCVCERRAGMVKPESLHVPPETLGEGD

[5] = target: T1, Fc-CLEC1 labelled with Alexa Fluor 488; test: FACS competition: blocks Fc-CLEC1-A488 (20 nM) binding to CLEC-1 ligand on permeabilised Raji cells; read-out % + cells
Description: as §1

[6] = target: T1, Fc-CLEC1 labelled with Alexa Fluor 488; test: FACS competition: blocks Fc-CLEC1-A488 (10 nM) binding to CLEC-1 ligand on permeabilised Raji cells; read-out Mean
Description: as §1

[7] = target: T1, Fc-CLEC1 labelled with Alexa Fluor 488; test: FACS competition: blocks Fc-CLEC1-A488 (10 nM) binding to CLEC-1 ligand on permeabilised Raji cells; read-out % + cells
Description: as §1

[8] = target: T1, Fc-CLEC1 labelled with Alexa Fluor 488; test: FACS competition: blocks Fc-CLEC1-A488 (20 nM) binding to CLEC-1 ligand on permeabilised Raji cells; read-out Mean
Description: as §1

[9] = target: T3, human CLEC-1A expressed on the cell …; test: flow cytometry on U266 cells; printed as ED50, read-out Mean
[10] = target: T2, recombinant human CLEC-1 protein with …; test: Blitz biolayer interferometry, His-CLEC1 on Ni-NTA biosensor, antibody at 20 ug/mL
Description: (§2) Analysis was performed with a BLItz System (Fortébio, #C22-2 No 61010-1, Molecular Devices, San José, USA).
(§3) The affinity of the anti-hCLEC1 antibodies, was measured with Blitz system (Forté Bio, C22-2 No 61010-1).

[11] = target: T2, recombinant human CLEC-1 protein with …; test: BLI (Blitz), CLEC1-His on Ni-NTA biosensor, antibody at 20 ug/mL; murine clone, FIG. 16
Description: as §2, §3

B1: murine anti-hCLEC1 antibody 15E3-G3 (antibody, V domains shown)
VH: QVQLQQSGPELVKPGASVKMSCKASGFTFTDYVIAWVKVRTGQGLEWIGEIYPGSGSIYYNEKFKGKATLTADKSSNTAYMQLSSLTSEDSAVYFCASSTVVAFDYWGQGTTLTVSS
VL: EIVLTQSPTTLAASPGEKIIITCSDSSSISSNYLHWYQQKPGFSPKLLIYGTSNLASGVPARFSGSGSGTTYSLTIGTMEAEDVATYYCQQGSSIPRTFGGGTKLEIK
notes: Mouse hybridoma antibody
IC50 [1]: 0.69 µg/mL | EC50 [2]: 0.0466 µg/mL | IC50 [3]: 4.5 µg/mL | EC50 [4]: 0.074 µg/mL | IC50 [5]: 14 µg/mL | IC50 [6]: 1.3 µg/mL | IC50 [7]: 7.7 µg/mL | IC50 [8]: 3 µg/mL | EC50 [9]: 0.59 µg/mL | Kd [10]: 14 nM | koff [10]: 0.00101 s⁻¹ | kon [10]: 72200 M⁻¹ s⁻¹

B2: murine anti-hCLEC1 antibody 14H9-F3 (antibody, V domains shown)
VH: QVQLKESGPGLVAPSQSLSITCTISGFSLTTYGIHWVRQPPGKGLEWLVVIWSDGSTIYNSALKSRLSISKDNSKSQVFLKMNSLQTDDTAIYYCARHGGYYNYFDYWGQGTTLTVSS
VL: DIQMNQSPSSLSASLGDTITITCHASQNINVWLSWYQQKPGNIPKLLIYKASNLHTGVPSRFSGSGSGTTFTLTIDSLQPEDIATYYCQQGQSYWTFGGGTKLEIK
notes: Mouse hybridoma antibody
IC50 [1]: 0.031 µg/mL | EC50 [2]: 0.157 µg/mL | IC50 [3]: 3.1 µg/mL | EC50 [4]: 0.0065 µg/mL | IC50 [5]: 22 µg/mL | IC50 [6]: 0.84 µg/mL | IC50 [7]: 3.2 µg/mL | IC50 [8]: 2.5 µg/mL | EC50 [9]: 0.072 µg/mL | Kd [10]: 8.24 nM | koff [10]: 0.00074 s⁻¹ | kon [10]: 89800 M⁻¹ s⁻¹

B3: murine anti-hCLEC1 antibody 21B1-E10 (antibody, V domains shown)
VH: B2 VH
VL: DIVMSQSPSSLAVSVGEKVTLTCKSTQNLFYSTNQKNYLAWYQQKPGQSPKLLIYWASTRESGVPDRFTGSGSGTDFTLTISSVKAEDPAVYYCQQYYTYPWTFGGGTKLEIK
notes: tied to the 21B1 variable domains by name
Kd [11]: ~1 nM

B4: murine anti-hCLEC1 antibody 5D1-A5 (antibody, V domains shown)
VH: B2 VH with T31S, I34V, I92M
VL: B2 VL with T70G, D76S
notes: Mouse hybridoma antibody
IC50 [1]: 0.13 µg/mL | EC50 [2]: 1.31 µg/mL | IC50 [3]: 3.8 µg/mL | EC50 [4]: 0.0064 µg/mL | IC50 [5]: 0.21 µg/mL | IC50 [6]: 4.4 µg/mL | IC50 [7]: 12 µg/mL | IC50 [8]: 3.1 µg/mL | EC50 [9]: 0.12 µg/mL | Kd [10]: 16.1 nM | koff [10]: 0.00124 s⁻¹ | kon [10]: 76600 M⁻¹ s⁻¹

B5: murine anti-hCLEC1 antibody 6C5-A4 (antibody, V domains shown)
VH: QVQLQQSGPELVKPGASVKMSCKASGYTFTDYVISWVKQKTGQGLEWIGEIYPGSGNTYYNEKFKGKATLTADKSSSTAYIHLSSLTSEDSAVYFCAGGGSSHFDYWGQGTTLTVSS
VL: not shown
notes: Mouse hybridoma antibody
IC50 [1]: 2 µg/mL | EC50 [2]: 0.012 µg/mL | IC50 [3]: 2.2 µg/mL | EC50 [4]: 0.051 µg/mL | IC50 [5]: 1.5 µg/mL | IC50 [6]: 1.7 µg/mL | IC50 [7]: 19 µg/mL | IC50 [8]: 1.7 µg/mL | EC50 [9]: 0.17 µg/mL | Kd [10]: 14.7 nM | koff [10]: 0.000934 s⁻¹ | kon [10]: 63400 M⁻¹ s⁻¹

The next lines start with the values.

IC50 [1]: 0.79 µg/mL | EC50 [2]: 0.0128 µg/mL | IC50 [3]: 2.8 µg/mL | EC50 [4]: 0.034 µg/mL | IC50 [5]: 0.82 µg/mL | IC50 [6]: 2.1 µg/mL | IC50 [7]: 11 µg/mL | IC50 [8]: 2.5 µg/mL | EC50 [9]: 0.22 µg/mL | Kd [10]: 5.72 nM | koff [10]: 0.000621 s⁻¹ | kon [10]: 109000 M⁻¹ s⁻¹
B6: murine anti-hCLEC1 antibody 10F4-H2 (antibody, V domains shown)
VH: QVQLQQSGTELARPGASVKMSCKASGYIFTDYTIHWVKQRPGQGLEWVGYINPSSGYTNYNQKFKAKATLTADKSSSTAYMQLSSLTSEDSAVYYCTPMFRRSYFDYWGQGTTLTVSS
VL: DAVMTQTPLSLPVSLGDQASISCRSSQSLENSNGNTYLNWYLQKPGQSPQLLIYRVSNRFSGVLDRFSGSGSGTDFTLKISRVEAEDLGVYFCLQVTHVPYTFGGGTKLEIK
notes: Mouse hybridoma antibody

IC50 [1]: 0.36 µg/mL | EC50 [2]: 0.00748 µg/mL | Kd [11]: ~1 nM | IC50 [3]: 2.7 µg/mL | EC50 [4]: 0.0077 µg/mL | IC50 [5]: 0.7 µg/mL | IC50 [6]: 1.5 µg/mL | IC50 [7]: 8 µg/mL | IC50 [8]: 0.72 µg/mL | EC50 [9]: 0.033 µg/mL | Kd [10]: 2.91 nM | koff [10]: 0.000787 s⁻¹ | kon [10]: 270000 M⁻¹ s⁻¹
B7: murine anti-hCLEC1 antibody 11H11-G11 (antibody, V domains shown)
VH: QIHLVQSGPELKKPGETVKISCKASGYTFTNFGMNWVKQAPGKGLKWMGWINTNTGEPTYADDFKGRFAFSLETSASTAYLQINNLKNEDTATYFCARGAPAWFTYWGQGTLVTVSA
VL: DIQMTQSPASLSASVGETVTITCRATENIYSYLAWYQQKQGKSPQFLVYNAKTLAEGMPSRFSGSGSGTQFSLKINILQPEDFGTYYCQHHFGTPLTFGAGTKLELK
notes: Mouse hybridoma antibody
